The text below walks through data of patent US20250002610A1 (Genmab, published 2025).

Test [1] concerns the target T1, human DR4 (Death Receptor 4), cell surface expressed on human tumor cell lines (human, UniProt O00220 24-468).
T1 construct: also called TNFRSF10A; TRAIL-R1
T1 sequence: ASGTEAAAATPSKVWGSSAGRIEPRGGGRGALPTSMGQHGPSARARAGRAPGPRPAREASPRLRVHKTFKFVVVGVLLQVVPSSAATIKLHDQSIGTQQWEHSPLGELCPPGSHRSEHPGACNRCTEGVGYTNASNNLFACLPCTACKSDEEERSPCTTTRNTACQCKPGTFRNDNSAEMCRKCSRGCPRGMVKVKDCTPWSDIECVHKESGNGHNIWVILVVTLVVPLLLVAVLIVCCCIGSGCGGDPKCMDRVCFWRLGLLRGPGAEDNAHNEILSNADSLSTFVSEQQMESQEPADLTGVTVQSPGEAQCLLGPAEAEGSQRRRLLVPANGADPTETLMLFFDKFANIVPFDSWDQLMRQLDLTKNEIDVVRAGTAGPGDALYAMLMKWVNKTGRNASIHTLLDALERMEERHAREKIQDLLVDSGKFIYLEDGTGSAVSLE
As to the kind of experiment: flow cytometry, A549 cells, n = 1. Background: A flow cytometer gives signals particle by particle.

For test [2], the target named is T1, human DR4 (Death Receptor 4), cell …. As to the kind of experiment: flow cytometry, PANC-1 cells, n = 1.
Test [3] shares this target. As to the kind of experiment: flow cytometry, PANC-1 cells, n = 2.
Test [4] has the same target. The test can be described thus: flow cytometry, PANC-1 cells, n = 3.
Test [5] has the same target. The test can be described thus: flow cytometry, MDA-MB-231 cells, N = 1.
Test [6] deals with T2, human FAPα (Fibroblast activation protein alpha), cell surface expressed (human, UniProt Q12884 1-760).
T2 construct: Endogenous on human lung fibroblasts and CAFs
T2 sequence: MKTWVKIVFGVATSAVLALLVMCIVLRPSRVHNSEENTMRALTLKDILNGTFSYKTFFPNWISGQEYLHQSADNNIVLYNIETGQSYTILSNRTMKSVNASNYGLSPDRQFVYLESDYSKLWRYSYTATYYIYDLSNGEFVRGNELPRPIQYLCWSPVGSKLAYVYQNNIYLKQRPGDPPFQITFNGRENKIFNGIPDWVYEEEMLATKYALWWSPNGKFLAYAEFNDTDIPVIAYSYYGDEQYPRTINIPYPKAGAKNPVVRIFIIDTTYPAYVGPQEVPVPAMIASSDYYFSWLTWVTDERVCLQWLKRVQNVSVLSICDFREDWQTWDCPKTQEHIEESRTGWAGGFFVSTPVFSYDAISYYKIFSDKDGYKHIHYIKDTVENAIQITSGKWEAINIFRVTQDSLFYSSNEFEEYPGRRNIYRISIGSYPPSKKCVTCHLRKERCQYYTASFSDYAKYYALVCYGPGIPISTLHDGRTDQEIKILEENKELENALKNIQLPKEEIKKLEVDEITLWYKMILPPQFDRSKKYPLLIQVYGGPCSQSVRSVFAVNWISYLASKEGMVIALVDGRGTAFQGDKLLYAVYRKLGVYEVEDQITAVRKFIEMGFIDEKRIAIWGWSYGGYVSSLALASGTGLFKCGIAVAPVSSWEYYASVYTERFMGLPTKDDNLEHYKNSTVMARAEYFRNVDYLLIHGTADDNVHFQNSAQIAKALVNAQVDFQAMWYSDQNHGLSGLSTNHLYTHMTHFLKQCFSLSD
As to the kind of experiment: flow cytometry, Expi293F cells expressing human FAPα, n = 3. How it is done:
Binding of BisG1-FAPα-FERL/DR4-FERR, BisG1-FAPα-FEAL/b12-FEAR and IgG1-FAPα-FERL to FAPα of species commonly used for nonclinical toxicology studies was assessed by flow cytometry using Expi293F cells transiently expressing FAPα from different animal species. IgG1-b12 was included as negative control.
Expi293F cells expressing recombinant FAPα from various species (human, cynomolgus monkey, dog, pig, rat or mouse) were seeded (20,000 cells/well) in 96-Well round bottom plates (Greiner Bio-one, Cat #650101). Antibody dilutions were prepared using FACS buffer, consisting of PBS (Capricorn Scientific, Cat #PBS-10XA, diluted to 1×PBS in distilled water)+1% BSA (Roche, Cat #10735086001)+0.02% Sodium Azide (Bio-World, Cat #41920044-3). Plates were centrifuged, supernatant was removed, and cells were resuspended in 100 μL of antibody dilutions (concentration range 30-0.00017 μg/mL with three-fold serial dilutions using FACS buffer) of BisG1-FAPα-FERL/DR4-FERR, BisG1-FAPα-FEAL/b12-FEAR, IgG1-FAPα-FERL and IgG1-b12 and incubated for 30 min at 4° C. […] After 30 min incubation at 4° C., cells were washed with FACS buffer and resuspended in FACS buffer supplemented with TO-PRO-3 Iodide viability marker (Invitrogen, Cat #T3605, diluted 1:4,000). Antibody binding to viable cells (gMFI of PE on TO-PRO-3 negative cells) was analyzed by flow cytometry on a FACS Celesta and FACS_Diva software (first two experiments) or iQue® 3 and FlowJo software (last experiment). gMFI was determined and visualized using GraphPad Prism. Binding curves were analyzed using nonlinear regression analysis. The concentration (pg/mL) at which 50% of the maximal effect was observed (EC₅₀) was derived from the fitted curves.

B1: BisG1-FAPα-FERL/DR4-FERR (bispecific antibody, human IgG1, kappa, lambda)
heavy 1: EVQLLESGGGLVQPGGSPRLSCEASGFTFSSYALSWVRQAPGKGLEWVSAISGSGGGRYYADSVKGRFTISRDNSKNTLFLQMNSLRAEDTAVYYCAKEGYSSSGTYWDHWGQGTLVTVSSASTKGPSVFPLAPSSKSTSGGTAALGCLVKDYFPEPVTVSWNSGALTSGVHTFPAVLQSSGLYSLSSVVTVPSSSLGTQTYICNVNHKPSNTKVDKRVEPKSCDKTHTCPPCPAPEFERGPSVFLFPPKPKDTLMISRTPEVTCVVVDVSHEDPEVKFNWYVDGVEVHNAKTKPREEQYNSTYRVVSVLTVLHQDWLNGKEYKCKVSNKALPAPIEKTISKAKGQPREPQVYTLPPSREEMTKNQVSLTCLVKGFYPSDIAVEWESNGQPENNYKTTPPVLDSDGSFLLYSKLTVDKSRWQQGNVFSCSVMHEALHNHYTQKSLSLSPG
light 1: AIQMTQSPSSVSASVGDRVTITCRASQGVSSWLAWYQQKPGRAPKLLIYVASTLQSGVPSRFSGSGSGTDFTLTINSLQPEDFATYYCQQANSFPPTFGQGTRLEMKRTVAAPSVFIFPPSDEQLKSGTASVVCLLNNFYPREAKVQWKVDNALQSGNSQESVTEQDSKDSTYSLSSTLTLSKADYEKHKVYACEVTHQGLSSPVTKSFNRGEC
heavy 2: QVQLQESGPGLVKPSGTLSLTCAVSGGSISSYSWWSWIRQPPGKGLEWIGELYHSGSTNYNPSLKSRVTISVDKSKNQFSLKLRSVTAADTAVYYCVRGVATIDYWGQGTLVTVSSASTKGPSVFPLAPSSKSTSGGTAALGCLVKDYFPEPVTVSWNSGALTSGVHTFPAVLQSSGLYSLSSVVTVPSSSLGTQTYICNVNHKPSNTKVDKRVEPKSCDKTHTCPPCPAPEFERGPSVFLFPPKPKDTLMISRTPEVTCVVVDVSHEDPEVKFNWYVDGVEVHNAKTKPREEQYNSTYRVVSVLTVLHQDWLNGKEYKCKVSNKALPAPIEKTISKAKGQPREPQVYTLPPSREEMTKNQVSLTCLVKGFYPSDIAVEWESNGQPENNYKTTPPVLDSDGSFFLYSRLTVDKSRWQQGNVFSCSVMHEALHNHYTQKSLSLSPG
light 2: QSALTQPPSASGSPGQSVTISCTGTSSDVGGYNFVSWYQQDPGKAPKLLIYEVTKRPSGVPDRFSGSKSGNTASLTVSGLQAEDEADYYCSSYAGSNNVMFGGGTKLTVLGQPKAAPSVTLFPPSSEELQANKATLVCLISDFYPGAVTVAWKADSSPVKAGVETTTPSKQSNNKYAASSYLSLTPEQWKSHRSYSCQVTHEGSTVEKTVAPTECS
notes: Human IgG1 bispecific made by controlled Fab-arm exchange of IgG1-FAPα-FERL and IgG1-DR4-FERR; monovalent for FAPα and for DR4; also called GEN1057
As usually defined, the EC50 is the concentration that produces a half-maximal response. Low values mean greater potency, high ones weaker potency. Turning to B1, the concentration giving a half-maximal response (EC50) in test [1] came out at 0.86 µg/mL; in test [2], 1.8 µg/mL; in test [3], 1.89 µg/mL; in test [4] it was 1.4 µg/mL; in test [5] it was 0.71 µg/mL; in test [6], 0.23 µg/mL.

B2: BisG1-b12-FERL/DR4-FERR (bispecific antibody, human IgG1, kappa, lambda)
heavy 1: QVQLVQSGAEVKKPGASVKVSCQASGYRFSNFVIHWVRQAPGQRFEWMGWINPYNGNKEFSAKFQDRVTFTADTSANTAYMELRSLRSADTAVYYCARVGPYSWDDSPQDNYYMDVWGKGTTVIVSSASTKGPSVFPLAPSSKSTSGGTAALGCLVKDYFPEPVTVSWNSGALTSGVHTFPAVLQSSGLYSLSSVVTVPSSSLGTQTYICNVNHKPSNTKVDKRVEPKSCDKTHTCPPCPAPEFERGPSVFLFPPKPKDTLMISRTPEVTCVVVDVSHEDPEVKFNWYVDGVEVHNAKTKPREEQYNSTYRVVSVLTVLHQDWLNGKEYKCKVSNKALPAPIEKTISKAKGQPREPQVYTLPPSREEMTKNQVSLTCLVKGFYPSDIAVEWESNGQPENNYKTTPPVLDSDGSFLLYSKLTVDKSRWQQGNVFSCSVMHEALHNHYTQKSLSLSPG
light 1: EIVLTQSPGTLSLSPGERATFSCRSSHSIRSRRVAWYQHKPGQAPRLVIHGVSNRASGISDRFSGSGSGTDFTLTITRVEPEDFALYYCQVYGASSYTFGQGTKLERKRTVAAPSVFIFPPSDEQLKSGTASVVCLLNNFYPREAKVQWKVDNALQSGNSQESVTEQDSKDSTYSLSSTLTLSKADYEKHKVYACEVTHQGLSSPVTKSFNRGEC
heavy 2: QVQLQESGPGLVKPSGTLSLTCAVSGGSISSYSWWSWIRQPPGKGLEWIGELYHSGSTNYNPSLKSRVTISVDKSKNQFSLKLRSVTAADTAVYYCVRGVATIDYWGQGTLVTVSSASTKGPSVFPLAPSSKSTSGGTAALGCLVKDYFPEPVTVSWNSGALTSGVHTFPAVLQSSGLYSLSSVVTVPSSSLGTQTYICNVNHKPSNTKVDKRVEPKSCDKTHTCPPCPAPEFERGPSVFLFPPKPKDTLMISRTPEVTCVVVDVSHEDPEVKFNWYVDGVEVHNAKTKPREEQYNSTYRVVSVLTVLHQDWLNGKEYKCKVSNKALPAPIEKTISKAKGQPREPQVYTLPPSREEMTKNQVSLTCLVKGFYPSDIAVEWESNGQPENNYKTTPPVLDSDGSFFLYSRLTVDKSRWQQGNVFSCSVMHEALHNHYTQKSLSLSPG
light 2: QSALTQPPSASGSPGQSVTISCTGTSSDVGGYNFVSWYQQDPGKAPKLLIYEVTKRPSGVPDRFSGSKSGNTASLTVSGLQAEDEADYYCSSYAGSNNVMFGGGTKLTVLGQPKAAPSVTLFPPSSEELQANKATLVCLISDFYPGAVTVAWKADSSPVKAGVETTTPSKQSNNKYAASSYLSLTPEQWKSHRSYSCQVTHEGSTVEKTVAPTECS
notes: Fab-arm exchange of IgG1-b12-FERL and IgG1-DR4-FERR; also called bsIgG1-ctrl-FERLxDR4-FERR
For B2, the EC50 in test [1] came out at 0.89 µg/mL; in test [2], 1.35 µg/mL; in test [3], 2.12 µg/mL; in test [4] it was 1.44 µg/mL; in test [5], 0.39 µg/mL. Moreover, the “Max MFI (at 90 µg/mL)” value in test [5] was 7840 MFI.

B3: IgG1-DR4-FERR (antibody, V domains shown)
VH: QVQLQESGPGLVKPSGTLSLTCAVSGGSISSYSWWSWIRQPPGKGLEWIGELYHSGSTNYNPSLKSRVTISVDKSKNQFSLKLRSVTAADTAVYYCVRGVATIDYWGQGTLVTVSS
VL: QSALTQPPSASGSPGQSVTISCTGTSSDVGGYNFVSWYQQDPGKAPKLLIYEVTKRPSGVPDRFSGSKSGNTASLTVSGLQAEDEADYYCSSYAGSNNVMFGGGTKLTVLG
notes: Bivalent monoclonal IgG1 lambda
As to B3, the concentration for a half-maximal effect (EC50) in test [1] amounted to 0.51 µg/mL; in test [2] it was 0.68 µg/mL; in test [3], 0.4 µg/mL; in test [4] it was 0.39 µg/mL; in test [5] it was 0.24 µg/mL.
